From the Immune Epitope Database (IEDB)

Columns and labels:
HLA-A*02:16 [1] = assay: IEDB peptide-MHC binding, purified MHC/competitive/fluorescence; filed as Kd, often an IC50 or EC50 that approximates it; ≥ and ≤ were set here for values at or beyond the usual limits of such assays; conditions: source organism: Vibrio parahaemolyticus AQ3810
HLA-B*39:01 = assay: as above
HLA-B*51:01 = assay: as above
HLA-A*23:01 = assay: as above
HLA-B*46:01 = assay: as above
HLA-A*02:12 [2] = assay: as above
HLA-A*02:03 [3] = assay: as above
HLA-B*18:01 = assay: as above
HLA-B*57:01 = assay: as above
HLA-A*26:01 [4] = assay: as above
HLA-A*03:01 [5] = assay: as above
HLA-B*27:03 = assay: as above
HLA-B*15:01 = assay: as above
HLA-A*24:03 [6] = assay: as above
HLA-A*29:02 = assay: as above
HLA-A*02:19 [7] = assay: as above
HLA-A*02:01 = assay: as above
HLA-B*15:17 = assay: as above; conditions: source organism: Vibrio parahaemolyticus AQ3810
HLA-B*58:01 = assay: as above
HLA-B*27:05 = assay: as above; conditions: source organism: Bacillus cereus H3081.97
HLA-A*02:11 [8] = assay: as above; conditions: source organism: Vibrio vulnificus CMCP6
HLA-A*02:16 [9] = assay: IEDB peptide-MHC binding, purified MHC/direct/fluorescence; filed as Kd, often an IC50 or EC50 that approximates it; ≥ and ≤ were set here for values at or beyond the usual limits of such assays; conditions: source organism: Ravn virus - Ravn, Kenya, 1987
HLA-A*02:11 [10] = assay: as above; conditions: source organism: Ravn virus - Ravn, Kenya, 1987
HLA-A*02:12 [11] = assay: as above; conditions: source organism: Ravn virus - Ravn, Kenya, 1987
HLA-A*02:03 [12] = assay: as above; conditions: source organism: Ravn virus - Ravn, Kenya, 1987
HLA-A*01:01 = assay: as above; conditions: source organism: Sudan ebolavirus - Maleo (1979)
HLA-A*26:01 [13] = assay: as above
HLA-A*03:01 [14] = assay: as above; conditions: source organism: Ravn virus - Ravn, Kenya, 1987
HLA-A*24:03 [15] = assay: as above; conditions: source organism: Ravn virus - Ravn, Kenya, 1987
HLA-A*02:19 [16] = assay: as above; conditions: source organism: Ravn virus - Ravn, Kenya, 1987
HLA-A*68:02 = assay: as above; conditions: source organism: Ravn virus - Ravn, Kenya, 1987
HLA-A*69:01 = assay: IEDB peptide-MHC binding, purified MHC/competitive/fluorescence; filed as Kd, often an IC50 or EC50 that approximates it; ≥ and ≤ were set here for values at or beyond the usual limits of such assays; conditions: source organism: Zaire ebolavirus
HLA-C*14:02 = assay: IEDB peptide-MHC binding, purified MHC/direct/fluorescence; filed as Kd, often an IC50 or EC50 that approximates it; ≥ and ≤ were set here for values at or beyond the usual limits of such assays; conditions: source organism: Mycobacterium tuberculosis H37Rv
HLA-C*15:02 = assay: as above; conditions: source organism: Mycobacterium tuberculosis H37Rv
HLA-B*35:01 = assay: IEDB peptide-MHC binding, purified MHC/competitive/fluorescence; filed as Kd, often an IC50 or EC50 that approximates it; ≥ and ≤ were set here for values at or beyond the usual limits of such assays; conditions: source organism: Mycobacterium tuberculosis H37Rv
[17] = source organism: Vibrio parahaemolyticus AQ3810
[18] = source organism: Escherichia coli 536
[19] = source organism: Vibrio vulnificus CMCP6
[20] = source organism: Zaire ebolavirus

**Q.** With KVGYFQHGA as the sequence, how does the Kd (HLA-A*02:16 [1]) read?
**A.** ≥ 20 µM

**Q.** What about the Kd (HLA-B*39:01; [17]) of the same sequence?
**A.** ≥ 20 µM

**Q.** And the Kd (HLA-B*51:01; [17])?
**A.** ≥ 20 µM

**Q.** And the Kd (HLA-A*23:01; [17])?
**A.** ≥ 20 µM

**Q.** And the Kd (HLA-B*46:01; [17])?
**A.** ≥ 20 µM

**Q.** And the Kd (HLA-A*02:12 [2]; [17])?
**A.** 0.171 µM

**Q.** What about the Kd (HLA-A*02:03 [3]; [17]) of the same sequence?
**A.** ≥ 20 µM

**Q.** What about the Kd (HLA-B*18:01; [17]) of the same sequence?
**A.** ≥ 20 µM

**Q.** What about the Kd (HLA-B*57:01; [17]) of the same sequence?
**A.** ≥ 20 µM

**Q.** What about the Kd (HLA-A*26:01 [4]; [17]) of the same sequence?
**A.** ≥ 20 µM

**Q.** What about the Kd (HLA-A*03:01 [5]; [17]) of the same sequence?
**A.** ≥ 20 µM

**Q.** What about the Kd (HLA-B*27:03; [17]) of the same sequence?
**A.** ≥ 20 µM

**Q.** And the Kd (HLA-B*15:01; [17])?
**A.** ≥ 20 µM

**Q.** What about the Kd (HLA-A*24:03 [6]; [17]) of the same sequence?
**A.** ≥ 20 µM

**Q.** And the Kd (HLA-A*29:02; [17])?
**A.** ≥ 20 µM

**Q.** And the Kd (HLA-A*02:19 [7]; [17])?
**A.** ≥ 20 µM

**Q.** And the Kd (HLA-A*02:01; [17])?
**A.** ≥ 20 µM

**Q.** What about the Kd (HLA-B*15:17) of the same sequence?
**A.** ≥ 20 µM

**Q.** With QMLPGYFRF as the sequence, how does the Kd (HLA-B*15:01; [18]) read?
**A.** 0.223 µM

**Q.** What about the Kd (HLA-B*58:01; [18]) of the same sequence?
**A.** 0.046 µM

**Q.** And the Kd (HLA-A*24:03 [6]; [18])?
**A.** 0.0002 µM

**Q.** For VRFANELSF, which Kd (HLA-B*27:05) is on record?
**A.** 0.0996 µM

**Q.** For WLAGFEPSE, which Kd (HLA-B*39:01; [19]) is on record?
**A.** ≥ 20 µM

**Q.** And the Kd (HLA-A*02:11 [8])?
**A.** ≥ 20 µM

**Q.** What about the Kd (HLA-B*51:01; [19]) of the same sequence?
**A.** ≥ 20 µM

**Q.** What about the Kd (HLA-A*23:01; [19]) of the same sequence?
**A.** ≥ 20 µM

**Q.** What about the Kd (HLA-B*46:01; [19]) of the same sequence?
**A.** ≥ 20 µM

**Q.** What about the Kd (HLA-A*02:12 [2]; [19]) of the same sequence?
**A.** 0.453 µM

**Q.** What about the Kd (HLA-A*02:03 [3]; [19]) of the same sequence?
**A.** ≥ 20 µM

**Q.** What about the Kd (HLA-B*18:01; [19]) of the same sequence?
**A.** ≥ 20 µM

**Q.** What about the Kd (HLA-B*57:01; [19]) of the same sequence?
**A.** ≥ 20 µM

**Q.** What about the Kd (HLA-A*26:01 [4]; [19]) of the same sequence?
**A.** ≥ 20 µM

**Q.** And the Kd (HLA-A*03:01 [5]; [19])?
**A.** ≥ 20 µM

**Q.** What about the Kd (HLA-B*27:03; [19]) of the same sequence?
**A.** ≥ 20 µM

**Q.** What about the Kd (HLA-B*15:01; [19]) of the same sequence?
**A.** ≥ 20 µM

**Q.** What about the Kd (HLA-A*24:03 [6]; [19]) of the same sequence?
**A.** ≥ 20 µM

**Q.** And the Kd (HLA-A*29:02; [19])?
**A.** ≥ 20 µM

**Q.** What about the Kd (HLA-A*02:19 [7]; [19]) of the same sequence?
**A.** ≥ 20 µM

**Q.** What about the Kd (HLA-A*02:01; [19]) of the same sequence?
**A.** ≥ 20 µM

**Q.** For YSGNIVHRY, which Kd (HLA-A*02:16 [9]) is on record?
**A.** ≥ 20 µM

**Q.** And the Kd (HLA-A*02:11 [10])?
**A.** ≥ 20 µM

**Q.** And the Kd (HLA-A*02:12 [11])?
**A.** ≥ 20 µM

**Q.** What about the Kd (HLA-A*02:03 [12]) of the same sequence?
**A.** ≥ 20 µM

**Q.** And the Kd (HLA-A*01:01)?
**A.** 0.0896 µM

**Q.** What about the Kd (HLA-A*26:01 [13]; source organism: Sudan ebolavirus - Maleo (1979)) of the same sequence?
**A.** 1.55 µM

**Q.** What about the Kd (HLA-A*03:01 [14]) of the same sequence?
**A.** ≥ 20 µM

**Q.** And the Kd (HLA-A*24:03 [15])?
**A.** ≥ 20 µM

**Q.** What about the Kd (HLA-A*02:19 [16]) of the same sequence?
**A.** ≥ 20 µM

**Q.** What about the Kd (HLA-A*68:02) of the same sequence?
**A.** ≥ 20 µM

**Q.** What about the Kd (HLA-B*39:01; [20]) of the same sequence?
**A.** ≥ 20 µM

**Q.** What about the Kd (HLA-B*51:01; [20]) of the same sequence?
**A.** ≥ 20 µM

**Q.** What about the Kd (HLA-B*46:01; [20]) of the same sequence?
**A.** ≥ 20 µM

**Q.** And the Kd (HLA-B*27:03; [20])?
**A.** ≥ 20 µM

**Q.** And the Kd (HLA-B*58:01; [20])?
**A.** 0.0647 µM

**Q.** What about the Kd (HLA-A*69:01) of the same sequence?
**A.** ≥ 20 µM

**Q.** What about the Kd (HLA-A*02:01; [20]) of the same sequence?
**A.** ≥ 20 µM

**Q.** Which results are given for YVRTNGASY?
**A.** Kd (HLA-A*26:01 [13]; source organism: Mycobacterium tuberculosis): 0.026 µM; Kd (HLA-C*14:02): 0.353 µM; Kd (HLA-C*15:02): ≥ 20 µM; Kd (HLA-B*46:01; source organism: Mycobacterium tuberculosis H37Rv): 2.22 µM; Kd (HLA-B*35:01): 0.0646 µM
